Data taken from paper PMC9482650, “Quantitative fragmentomics allow affinity mapping of interactomes” (Nature Communications, 2022).

T1: PARD3B_1, Q8TEW8
T1 sequence (Q8TEW8 196-299, limits assumed, looked up): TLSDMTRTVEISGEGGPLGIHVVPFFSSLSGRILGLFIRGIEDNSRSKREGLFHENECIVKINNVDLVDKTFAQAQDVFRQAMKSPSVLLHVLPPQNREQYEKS

T2: SHANK1, Q9Y566
T2 sequence (Q9Y566 658-767, limits assumed, looked up): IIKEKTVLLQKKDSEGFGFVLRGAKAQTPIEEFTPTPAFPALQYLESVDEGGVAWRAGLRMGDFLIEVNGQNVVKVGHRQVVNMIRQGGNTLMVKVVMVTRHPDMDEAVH

T3: GRIP1_4, Q9Y3R0
T3 sequence (Q9Y3R0 467-571, limits assumed, looked up): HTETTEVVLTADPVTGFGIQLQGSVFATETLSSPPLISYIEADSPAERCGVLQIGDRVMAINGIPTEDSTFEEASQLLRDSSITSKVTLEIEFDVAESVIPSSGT

T4: RHPN1, Q8TCX5
T4 sequence (Q8TCX5 508-602, limits assumed, looked up): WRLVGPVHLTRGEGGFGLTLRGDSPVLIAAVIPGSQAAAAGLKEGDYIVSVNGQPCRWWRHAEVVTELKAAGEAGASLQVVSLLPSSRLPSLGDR

T5: DLG3_3, Q92796
T5 sequence (Q92796 374-475, limits assumed, looked up): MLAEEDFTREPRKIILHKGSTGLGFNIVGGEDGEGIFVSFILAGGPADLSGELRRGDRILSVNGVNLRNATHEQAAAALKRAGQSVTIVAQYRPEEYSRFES

T6: LIN7C, Q9NUP9
T6 sequence (Q9NUP9 88-185, limits assumed, looked up): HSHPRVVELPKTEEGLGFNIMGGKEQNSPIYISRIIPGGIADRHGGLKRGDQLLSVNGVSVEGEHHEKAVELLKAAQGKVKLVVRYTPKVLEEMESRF

T7: SIPA1L2, Q9P2F8
T7 sequence (Q9P2F8 945-1036, limits assumed, looked up): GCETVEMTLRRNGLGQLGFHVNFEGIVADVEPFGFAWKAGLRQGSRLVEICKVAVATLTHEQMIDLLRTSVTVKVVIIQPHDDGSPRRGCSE

T8: MPDZ_12, O75970
T8 sequence (O75970 1857-1958, limits assumed, looked up): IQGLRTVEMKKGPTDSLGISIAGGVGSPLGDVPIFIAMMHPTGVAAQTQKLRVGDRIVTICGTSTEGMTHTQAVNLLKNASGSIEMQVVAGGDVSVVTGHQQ


Columns and labels:
Experiment in all cases: holdup assay
Parameters in all cases: key: below the threshold = too weak to quantify, mostly under pKd 3.1 to 4
Details in all cases: plain residues with an end cap or a label only (N-terminal biotin on a linker: ado-ado)
PARD3B_1, Q8TEW8 = molecular target: T1, PARD3B_1, Q8TEW8
SHANK1, Q9Y566 = molecular target: T2, SHANK1, Q9Y566
LNX1_3, Q8TBB1 = molecular target: LNX1_3, Q8TBB1
GRID2IP_2, A4D2P6 = molecular target: GRID2IP_2, A4D2P6
GORASP1, Q9BQQ3 = molecular target: GORASP1, Q9BQQ3
PTPN3, P26045 = molecular target: PTPN3, P26045
Inadl_6, Q8NI35 = molecular target: Inadl_6, Q8NI35
GRIP1_4, Q9Y3R0 = molecular target: T3, GRIP1_4, Q9Y3R0
SCRIB_3, Q14160 = molecular target: SCRIB_3, Q14160
DLG1_2, Q12959 = molecular target: DLG1_2, Q12959
HTRA2, O43464 = molecular target: HTRA2, O43464
MAGI2_2, Q86UL8 = molecular target: MAGI2_2, Q86UL8
FRMPD3, Q5JV73 = molecular target: FRMPD3, Q5JV73
NHERF2_2, Q15599 = molecular target: NHERF2_2, Q15599
NHERF4_4, Q86UT5 = molecular target: NHERF4_4, Q86UT5
FRMPD2_1, Q68DX3 = molecular target: FRMPD2_1, Q68DX3
RHPN1, Q8TCX5 = molecular target: T4, RHPN1, Q8TCX5
DLG3_3, Q92796 = molecular target: T5, DLG3_3, Q92796
LDB3, O75112 = molecular target: LDB3, O75112
SNX27, Q96L92 = molecular target: SNX27, Q96L92
MAGI2_6, Q86UL8 = molecular target: MAGI2_6, Q86UL8
Inadl_2, Q8NI35 = molecular target: Inadl_2, Q8NI35
LIN7C, Q9NUP9 = molecular target: T6, LIN7C, Q9NUP9
Inadl_1, Q8NI35 = molecular target: Inadl_1, Q8NI35
ARHGEF12, Q9NZN5-2 = molecular target: ARHGEF12, Q9NZN5-2
NHERF4_1, Q86UT5-2 = molecular target: NHERF4_1, Q86UT5-2
SIPA1L2, Q9P2F8 = molecular target: T7, SIPA1L2, Q9P2F8
GRIP2_4, Q9C0E4 = molecular target: GRIP2_4, Q9C0E4
MPDZ_12, O75970 = molecular target: T8, MPDZ_12, O75970

NHERF4_1, Q86UT5-2, sequence (Q86UT5 other isoform, or with tags, fused parts or gaps): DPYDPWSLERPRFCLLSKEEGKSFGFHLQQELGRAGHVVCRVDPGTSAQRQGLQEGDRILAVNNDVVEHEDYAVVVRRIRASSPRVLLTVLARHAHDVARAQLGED
LDB3, O75112, sequence (O75112 1-94): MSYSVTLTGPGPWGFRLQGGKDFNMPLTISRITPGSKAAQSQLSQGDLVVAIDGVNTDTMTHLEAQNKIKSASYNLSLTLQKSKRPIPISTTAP
DLG1_2, Q12959, sequence (Q12959 314-412): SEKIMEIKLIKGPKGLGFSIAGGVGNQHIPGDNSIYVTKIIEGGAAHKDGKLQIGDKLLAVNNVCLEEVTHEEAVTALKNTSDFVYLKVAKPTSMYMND
NHERF4_4, Q86UT5, sequence (Q86UT5 464-550): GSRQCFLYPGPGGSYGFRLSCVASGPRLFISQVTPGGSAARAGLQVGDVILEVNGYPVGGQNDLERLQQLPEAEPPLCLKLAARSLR
MAGI2_6, Q86UL8, sequence (Q86UL8 1141-1229): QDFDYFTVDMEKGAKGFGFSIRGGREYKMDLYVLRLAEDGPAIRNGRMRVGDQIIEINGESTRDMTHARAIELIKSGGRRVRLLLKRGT
FRMPD2_1, Q68DX3, sequence (Q68DX3 770-861): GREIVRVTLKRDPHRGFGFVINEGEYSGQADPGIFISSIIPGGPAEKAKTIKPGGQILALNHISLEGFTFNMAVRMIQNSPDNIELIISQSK
GRIP2_4, Q9C0E4, sequence (Q9C0E4 446-548): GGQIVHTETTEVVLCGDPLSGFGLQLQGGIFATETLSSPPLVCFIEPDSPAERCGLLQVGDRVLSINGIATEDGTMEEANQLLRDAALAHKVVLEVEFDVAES
GORASP1, Q9BQQ3, sequence (Q9BQQ3 1-208): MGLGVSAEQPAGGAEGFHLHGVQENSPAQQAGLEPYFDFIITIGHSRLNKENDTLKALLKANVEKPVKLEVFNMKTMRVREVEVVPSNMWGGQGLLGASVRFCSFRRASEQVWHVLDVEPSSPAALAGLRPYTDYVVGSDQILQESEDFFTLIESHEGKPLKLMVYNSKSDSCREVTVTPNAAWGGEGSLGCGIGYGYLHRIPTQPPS
MAGI2_2, Q86UL8, sequence (Q86UL8 410-522): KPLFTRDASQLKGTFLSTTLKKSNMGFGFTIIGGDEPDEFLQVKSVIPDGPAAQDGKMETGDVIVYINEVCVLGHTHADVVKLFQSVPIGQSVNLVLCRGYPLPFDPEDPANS
Inadl_6, Q8NI35, sequence (Q8NI35 1058-1167): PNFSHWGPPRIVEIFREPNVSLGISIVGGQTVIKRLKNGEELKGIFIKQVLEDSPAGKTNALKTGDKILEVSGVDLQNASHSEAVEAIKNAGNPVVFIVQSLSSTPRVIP
Inadl_2, Q8NI35, sequence (Q8NI35 238-335): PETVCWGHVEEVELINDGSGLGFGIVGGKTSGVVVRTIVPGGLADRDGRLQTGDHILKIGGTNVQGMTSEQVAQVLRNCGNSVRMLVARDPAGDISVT
PTPN3, P26045, sequence (P26045 505-587): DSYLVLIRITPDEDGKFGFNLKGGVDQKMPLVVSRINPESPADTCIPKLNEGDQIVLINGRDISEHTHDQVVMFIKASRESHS
FRMPD3, Q5JV73, sequence (Q5JV73 12-100): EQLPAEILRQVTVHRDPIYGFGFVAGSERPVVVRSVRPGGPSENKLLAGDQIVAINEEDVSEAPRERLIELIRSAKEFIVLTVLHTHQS
ARHGEF12, Q9NZN5-2, sequence (Q9NZN5 other isoform, or with tags, fused parts or gaps): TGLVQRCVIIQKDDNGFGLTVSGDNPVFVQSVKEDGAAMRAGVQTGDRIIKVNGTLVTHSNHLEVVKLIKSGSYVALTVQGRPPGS
HTRA2, O43464, sequence (O43464 355-458): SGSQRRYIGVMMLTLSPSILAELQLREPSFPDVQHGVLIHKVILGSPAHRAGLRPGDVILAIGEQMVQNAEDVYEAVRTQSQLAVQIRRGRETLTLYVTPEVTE
GRID2IP_2, A4D2P6, sequence (A4D2P6 272-370): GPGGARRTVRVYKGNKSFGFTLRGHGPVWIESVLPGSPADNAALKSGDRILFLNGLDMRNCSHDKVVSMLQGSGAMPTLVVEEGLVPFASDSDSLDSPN
NHERF2_2, Q15599, sequence (Q15599 142-238): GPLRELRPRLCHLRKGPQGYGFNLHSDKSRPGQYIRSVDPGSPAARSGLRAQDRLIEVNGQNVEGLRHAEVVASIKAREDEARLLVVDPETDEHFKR
LNX1_3, Q8TBB1, sequence (Q8TBB1 500-596): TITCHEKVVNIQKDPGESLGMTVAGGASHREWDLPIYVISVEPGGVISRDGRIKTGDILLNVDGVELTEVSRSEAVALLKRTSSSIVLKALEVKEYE
Inadl_1, Q8NI35, sequence (Q8NI35 113-229): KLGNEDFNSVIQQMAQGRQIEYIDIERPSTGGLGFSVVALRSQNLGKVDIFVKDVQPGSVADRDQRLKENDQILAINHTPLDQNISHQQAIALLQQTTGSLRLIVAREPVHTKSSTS
SCRIB_3, Q14160, sequence (Q14160 999-1103): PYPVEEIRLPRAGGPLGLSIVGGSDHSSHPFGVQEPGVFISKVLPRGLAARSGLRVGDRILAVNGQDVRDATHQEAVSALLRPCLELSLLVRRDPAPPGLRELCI

| Binder | pKd (PARD3B_1, Q8TEW8) | pKd (SHANK1, Q9Y566) | pKd (LNX1_3, Q8TBB1) | pKd (GRID2IP_2, A4D2P6) | pKd (GORASP1, Q9BQQ3) | pKd (PTPN3, P26045) | pKd (Inadl_6, Q8NI35) | pKd (GRIP1_4, Q9Y3R0) | pKd (SCRIB_3, Q14160) | pKd (DLG1_2, Q12959) | pKd (HTRA2, O43464) | pKd (MAGI2_2, Q86UL8) | pKd (FRMPD3, Q5JV73) | pKd (NHERF2_2, Q15599) | pKd (NHERF4_4, Q86UT5) | pKd (FRMPD2_1, Q68DX3) | pKd (RHPN1, Q8TCX5) | pKd (DLG3_3, Q92796) | pKd (LDB3, O75112) | pKd (SNX27, Q96L92) | further results |
| --- | --- | --- | --- | --- | --- | --- | --- | --- | --- | --- | --- | --- | --- | --- | --- | --- | --- | --- | --- | --- | --- |
| FNSYSLTGYV [CLDN2, P57739] | 4.42 | below the threshold | below the threshold | 3.68 | 4.14 | below the threshold | below the threshold | below the threshold | 3.53 | 3.49 | 4.48 | 3.67 | below the threshold | below the threshold | 3.99 | 3.49 | below the threshold | below the threshold | below the threshold | 4.06 | pKd (MAGI2_6, Q86UL8): 3.72; pKd (Inadl_2, Q8NI35): below the threshold; pKd (LIN7C, Q9NUP9): below the threshold; pKd (Inadl_1, Q8NI35): below the threshold; pKd (ARHGEF12, Q9NZN5-2): 3.84; pKd (NHERF4_1, Q86UT5-2): 3.9; pKd (SIPA1L2, Q9P2F8): 3.5; pKd (GRIP2_4, Q9C0E4): below the threshold; pKd (MPDZ_12, O75970): below the threshold |
| QGPVETESVV [SLC45A4, Q5BKX6] | below the threshold | below the threshold | below the threshold | 3.55 | 3.65 | 4.66 | 3.57 | below the threshold | 3.9 | 4.69 | below the threshold | 3.78 | 3.5 | 3.63 | below the threshold | below the threshold | 4.47 | below the threshold | below the threshold | 5.73 | pKd (MAGI2_6, Q86UL8): 3.55; pKd (Inadl_2, Q8NI35): below the threshold; pKd (LIN7C, Q9NUP9): below the threshold; pKd (Inadl_1, Q8NI35): below the threshold; pKd (ARHGEF12, Q9NZN5-2): below the threshold; pKd (NHERF4_1, Q86UT5-2): 3.48; pKd (SIPA1L2, Q9P2F8): below the threshold; pKd (GRIP2_4, Q9C0E4): below the threshold; pKd (MPDZ_12, O75970): 3.5 |

Now from value to binder, other results behind:

| pKd (PARD3B_1, Q8TEW8) | pKd (SHANK1, Q9Y566) | pKd (LNX1_3, Q8TBB1) | pKd (GRID2IP_2, A4D2P6) | pKd (GORASP1, Q9BQQ3) | pKd (PTPN3, P26045) | pKd (Inadl_6, Q8NI35) | pKd (GRIP1_4, Q9Y3R0) | pKd (SCRIB_3, Q14160) | pKd (DLG1_2, Q12959) | pKd (HTRA2, O43464) | pKd (MAGI2_2, Q86UL8) | pKd (FRMPD3, Q5JV73) | pKd (NHERF2_2, Q15599) | pKd (NHERF4_4, Q86UT5) | pKd (FRMPD2_1, Q68DX3) | pKd (RHPN1, Q8TCX5) | pKd (DLG3_3, Q92796) | pKd (LDB3, O75112) | pKd (SNX27, Q96L92) | Binder | further results |
| --- | --- | --- | --- | --- | --- | --- | --- | --- | --- | --- | --- | --- | --- | --- | --- | --- | --- | --- | --- | --- | --- |
| below the threshold | 4.26 | below the threshold | 4.58 | 3.57 | below the threshold | below the threshold | below the threshold | 3.78 | 4.68 | below the threshold | 5.42 | below the threshold | below the threshold | below the threshold | 4.35 | below the threshold | 4.44 | below the threshold | 4 | TKGPRGPTRV [SAPCD1, Q5SSQ6] | pKd (MAGI2_6, Q86UL8): below the threshold; pKd (Inadl_2, Q8NI35): below the threshold; pKd (LIN7C, Q9NUP9): below the threshold; pKd (Inadl_1, Q8NI35): below the threshold; pKd (ARHGEF12, Q9NZN5-2): 4.24; pKd (NHERF4_1, Q86UT5-2): below the threshold; pKd (SIPA1L2, Q9P2F8): below the threshold; pKd (GRIP2_4, Q9C0E4): below the threshold; pKd (MPDZ_12, O75970): below the threshold |
| 4.52 | below the threshold | below the threshold | below the threshold | below the threshold | 4.02 | below the threshold | below the threshold | below the threshold | below the threshold | below the threshold | below the threshold | 3.84 | below the threshold | below the threshold | 3.51 | below the threshold | below the threshold | below the threshold | below the threshold | KKAPTNEFYA [SDC4, P31431] | pKd (MAGI2_6, Q86UL8): below the threshold; pKd (Inadl_2, Q8NI35): below the threshold; pKd (LIN7C, Q9NUP9): 3.78; pKd (Inadl_1, Q8NI35): below the threshold; pKd (ARHGEF12, Q9NZN5-2): below the threshold; pKd (NHERF4_1, Q86UT5-2): below the threshold; pKd (SIPA1L2, Q9P2F8): below the threshold; pKd (GRIP2_4, Q9C0E4): below the threshold; pKd (MPDZ_12, O75970): below the threshold |
| 3.69 | 4.01 | below the threshold | 3.55 | below the threshold | 4.63 | below the threshold | below the threshold | 4.24 | below the threshold | below the threshold | 3.64 | below the threshold | 4.56 | below the threshold | below the threshold | 4.07 | below the threshold | 3.6 | 5.34 | VKPQVSESKL [ACOT8, O14734] | pKd (MAGI2_6, Q86UL8): below the threshold; pKd (Inadl_2, Q8NI35): below the threshold; pKd (LIN7C, Q9NUP9): below the threshold; pKd (Inadl_1, Q8NI35): below the threshold; pKd (ARHGEF12, Q9NZN5-2): 4.03; pKd (NHERF4_1, Q86UT5-2): 3.78; pKd (SIPA1L2, Q9P2F8): below the threshold; pKd (GRIP2_4, Q9C0E4): below the threshold; pKd (MPDZ_12, O75970): below the threshold |
